These sequences were tested on Saccharomyces cerevisiae (assay: transcriptional activation domain activity (GFP:mCherry ratio, weighted mean of sorted bins, harmonized to initial dataset scale) (arbitrary fluorescence ratio units); higher = stronger transcriptional activation). Details: beta-estradiol 1 µM; induction time 4 h.
In short: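 Barcoded tiles were sequenced after cells were sorted into 8 bins by GFP:mCherry ratio. Before sorting, cultures had been diluted 1:5 into SC with 1 uM beta-estradiol and held for 4 hours at 30 °C. The tiles were fused to an estradiol-inducible synthetic transcription factor and integrated at URA3 in yeast diploids carrying a GFP reporter. Activation activity is the read-weighted mean of bin median fluorescence, averaged over barcodes and linearly mapped onto the initial dataset scale, and tiles under 50 reads were left out.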

| Sequence | transcriptional activation domain activity |
| --- | --- |
| MSNLELMRFLTKPDVKLELSVKIDDIYWNCIFSLRYREMYTASLLRYMVFFLR | 52700 |
| QAATGVGILLLLHDFKRVSIVILAQDGCDDEGWPNQLVAFAALLRSRLLKGGE | 22100 |
| AFLCWVAPNNQVANFLGSGFGGMGFLNLSLDWSNISTNGSLFLTPWWTQVVMF | 52500 |
| AFSFALFDFDTLAGTFPFDSLGYSDDISTLTDPLIPMNYDPTPFSWTPRTTLA | 54300 |
| MSVSSPEDVTSEASGPAATAPAHEPLACVNCRSRKLKCDRQKPVCSRCAKAGG | 46300 |
| MVLINIPNFLFSLFFFLFSFFSLLPFFTYLTFLSSSSLLLSTFCCSLASSPCM | 50000 |
| MLPQFQEGNCEDLWNVLVWCTIPIPFDDCEAYPCDYQQNPYPNHINFWFYLFW | 55600 |
| PFFRVHHLYLPSLLQVVNLAILTSHALFNFIPHFYIVCIIVFWEGLLGGLVYV | 60500 |
| SQLQDPIAKEHVAFGLRHMYKTLQNEVKSYYNLMQSLHVRLPGLEFLTLWMAF | 50100 |
| RNIGTGPSAPGGVDHKRSRACESCRGLKVRCEPANEANLQGSCKRCAKAGRHC | 40400 |
| LEEIHILERLYYKSKNQHHASLFWRKLTEIRRVTTRLLKFNVTETVASIPLAF | 59200 |
| SPLNSFDRSFYPIGCTNLSNDIPGYSFLNDAMSEIHTFGDFNGELDSTFLEFS | 131000 |
| SEEDEIKAGEEVPKKRRRRQALSCTECKRRKIKCDRQHPCGPCVRRTEADKCH | 52300 |
| MHITCPRLWGHCSWCVVLPFIFHTFLYCIPTFCCFLVHISAILFIGFSFLGSL | 55600 |
| LHGSIHEGLCRMLINIFIENLVLKEDVLLALCIQVLFPKEYITKGLMDAIKKD | 13900 |
| KSPHMSAVESKPKEAKTVVEPKADKAAEVKKEEPKKEVVAAPEPVAAKPIAQI | 35600 |
| LYLCLVILFKRCIIGGFKAGPRRHDQVTLMRYWFMEKLLPPGENLQGVASILG | 16200 |
| MSFLHCFFHVRYFPSNLFVIVIMFLLLFVHSFARGWRMEYAVSFLFNSLVLMY | 61700 |
| GNEREQREGRREKNGRGEKGKKEERRGRKKRGGGWKRVRRENQARKQGEKGEQ | 38100 |
| MNKLFFKLRICVLIKIMLLQFVIIATIYNCNYFIIIVMYICLLLLLPFKLVYD | 52100 |
| VKHRVIHLLVVFVAFFFAVTPVYFDYLCCGSPLVLFSSTLGMIIHLILFFFCL | 49000 |

| Sequence | transcriptional activation domain activity |
| --- | --- |
| MMNNNESEAENQRLLDELMNQTKVLQETLDFSLVTPTPHHNDDYKIHGSAYPG | 47300 |
| SPDDFDQTLPLDLSDENITEVAYLPENQHSVLSSTGISNEHTKLFLILNEIIS | 63000 |
| LSYCHRPVFTCCDLYRTCLYCSIFYLLSFPILLPPSISLHIILLFSHTILIIL | 31700 |
| GVRKDRQQMYFILATNSMIDLGFVVASFVPLVLLWIGGMGYLRVVWRVTLGLG | 51400 |
| MALEQRCQPTCEAVLLFLLLLFLPLWLLFERFKNLLLLLWPLFFFFFLLLLLW | 35100 |
| IFHLPLECPFPLTNRRNACALIENFLDAVKYHRHLFPYWRRRAIKYFIWREWF | 32300 |
| LTHEFRMGLIPLGLVALLSSGTTLTLICFICWRLVTWKLHYNTFLGYNQYVLL | 50400 |
| GNAREMRASSARAAGFRRRGRQASNTRAAGNEREGGEQRARGRGASSARAGGI | 43400 |
| LKSKSVVSSRTAEEKKEISGALGEGMLQQLVVLLGQVPRIILLILKTNDLTRS | 52200 |
| LFTHLCLNPQLLRSISSVIFLPRITAPIHVYLYSILIYLQFKMLLLYTLFHIM | 77200 |
| VNYHLAMRYFMRYLFTQDLLPLLLAAKEQCQQAHVMCVQGAGFGLRIRTDDIG | 45000 |
| VKPIPPRPSTGLRYRVETLIGITGYRMAKFRPSWSEVVLACLNVLWRPQFFFV | 55000 |
| EAEGEAGAEEPAAEGEAGAEGEAGGEGELEAEPAAEGEGEAEPEAGAETEAAG | 13200 |
| LGSCFLLSLVHPFFLLYYLYLRLLSLCFLYLRFVFFFCSPMSFFILLSIMSFL | 60100 |
| RIRDFMQFTLAATKTHYKLLPDILFKADPELCRRVSDANPSCALAALLTLYAH | 77500 |
| MMKKKNWSYVVFWRGLPFFFFFFFFFFGEHFVLIFTSFVLFLLSLLCAGCVWV | 25000 |
| DSHYILQGVDAAIQILKLCRVCLHPRAVLSYLPHSFYLYLCYAAVFLLKVVFV | 61700 |
| LYSIFSLLSIRFFILYSVYVFFFFIGALGGGMLYGLFFFFFFDEVIWYSFFLS | 35400 |
| MASSTSPSPSTTSIKSEVAPGRTVACLRCRGRRQFCSKERPQCKKCRDARAEC | 28800 |
| MRLLAYGLMSSGVLLAHVVHIWRQRGFFFATCIGLTNHNFGLLVIMNFCLFCS | 56000 |
| MLGKGRIMEYLLTFVWGFGVHILIFYLSCTGVIMGFLLIYTYSTFCFCFHHYV | 67600 |

| Sequence | transcriptional activation domain activity |
| --- | --- |
| EADEEAAKAEHVHAPGEGGEGEGGGGPRRLEGKEGEREQKEIERQKKAEKDEK | 44400 |
| PPILVWMRYNAFFILYPLGAGSECLLTFFSLDEAHAWWPHYALLLKIILLIYI | 73800 |
| PDDHKLLKALVFFLWVFDGLHIALICHAFYLITVTNFGNVLALLTIPRTLPIA | 58400 |
| LGTTLLIVVKMLLNWETIDCWGLIYKKMVIGQFMSEMYRIAAGGGKRRVPWAK | 60800 |
| AAEVKQAKEETGEKAQKKEKKEKEKKAEAAEGGKKKEKAAGGGKPAAEEAAGE | 24500 |
| KMSTNANNYTGAGNLHAAKPATSPTNVGTLHENLSSSHFMIPDVDQFNSFEDF | 30300 |
| IAILRLYSEPDVDLLRLSSQVLAASLLLDDHFICDIKNIRSVVAMIPRVLTLP | 46800 |
| DAPPQKGDRKAEVQDGENGDEVGQDPKGKDKGGRGRGRGGRGRGGAARGGATA | 36600 |
| DADGNPTGDGEPPKKRRRRQALSCTECKRRKIKCDRNHPCSPCARRGDGQKCQ | 13000 |
| MNLILRCIWRVTKTIPRLIQTKSIKPDILLYDIHKFFVTVPPREWKRRATEFP | 55900 |
| MWGWNGKEIHFSFTEVFLKFLIWLVHSFLRSFLGFSNGFFLTFPLVGFFFSFL | 54800 |
| MPPNHPIRLFPLLVQILLLLSASSLLLDTYDYINLGINSSFSYYYFLHLLTFL | 44200 |
| MFENFSLLLSSLCFFPLSLFFCFFFLFPLSSFFFFVFLLAFCFCCFRFSLFFF | 18100 |
| HVQIASSDVIKRVSSRVAWCLKSILTILLNVNQLEMSVLRSRVLRLIVFFLHY | 62300 |
| KKAEKQEGEDKEKEEKPKPSRGKKRKESEEPNGASAEGEEEPVAKKAKPASKA | 49000 |
| QQAHHNVSGPTSKTLLPFLPLHKLMLSNILSPNVRLLFPPLLPLQLSWILWAL | 61800 |
| FCVAAMIGEYGTTYYPTVTYWGELEVLGKIFWTLPLESFANSISGIIVDCYLI | 63500 |
| SFFFFFSYFYLDSLFLVLLPFTLCFYLFLVLWVCWLVGWFVGWLARFALSLSL | 55400 |
| SKEREQRERSVEQEQPRRKNGRRRRDKRDEQRRRNRRRSSSSRRESRSSRRES | 44600 |
| GEVTEAEANGEAPKPEGEAAAEASPKPRKKKSPRKKKAAAPAEGEAAATEATA | 19600 |
| MASLRNHAEQLNAAVYRNYKKDRKVGEGAYAVVYLGTQLSTKKVVAIKKIKVG | 49800 |

| Sequence | transcriptional activation domain activity |
| --- | --- |
| RRTRYLVLCVALELISSILYLYLISIFGSLHLATFPLRLGFFFLLLSRLLCTM | 35100 |
| RKREEEDARVQEAALKEEEDARVREAARKEEEEEAERLKRRREEEDARVQEAA | 22400 |
| LANISLFTSFHQTDINWCGPTRLRWFGYCFCGMFVYYWLPGYFFQILTFFSWA | 73700 |
| PFTIVFILPFDFSSTQYRICEHNCDAPLGYISSQFTRRLWVVLYWTMYLLTWL | 67000 |
| LGLDSGYLWSGILYNLSVTISLYSLGMFWVCMSKDLQPFRPVPKFLCIKLIIF | 53200 |
| GWAFGTKNEDGFQLFDCTGEALGVILRLSHILRHVTTFWRLRTAVDLLLQAQC | 58900 |
| LTLFVHFVKLSGILGEVLRRIYSPKAKINGYRTKTMSQTVWSLQRMLNEWLTN | 53300 |
| LFSDTSFTIVFSNNVSFTYISFDKKVFFCIFFFLLVYFCQTFSFFLLFFLFFL | 44400 |
| GPEYEPGRPSEQEVSLTRMLDKVLRRSDAIDKESLCIIAGQRVWHIRLTIHCL | 87900 |
| SSATASAADAATTDAASGSLEARKKKDDKKKGDKKKGKKGDKKGGKKAASTTA | 12500 |
| SLPLPDTLPFPLPDSLHLPLTDDFSLTLQDALPFLYMDSLPFPLPMPFLFYFW | 69600 |
| IQFSLIPLSILSFCINHFGLGCDVWTVSFAHITDVLHITYWVEILYTLCLYFV | 40700 |
| IFASALLVACFIHVKGVLDFSLYILKITCRADLDVDEWRSHFGMGEYVVYVGM | 61400 |
| ADEYIFHLTHGTLCICEHQGEENVVVVNVKSIISVVAMVPFPFIVRGCNNQYF | 32600 |
| PDHIHHHSNNMNNEDNDNNNGSNNKVSNDSKLDFVTDDLEYHLANTHPDDTND | 47000 |
| DDHRSRRYRDRGRDRDQDEDAEDSHRDRRRRRRSPDEGASRRHQRESHADGDG | 35700 |
| CYVLRDVFFCTVFFAFAGSIEALLQSGFCGYFPLTSTWQIVLLRALMWMTYWW | 51000 |
| ALNAIIEGFQLFRSAFQPASLSVSMVHSVSVLVNWPSPYFTSLLLPGYDIGFP | 62800 |
| HSKHSAEGIVVSKYLMCFLLFCVWIFTHLVEVAVLLLQIIYNTLFILRSLFLH | 63800 |
| MLGSARVWQKRACMGFSFSLVIVSFTPPHRLFSHVQLGSIVSLLFFVTLFNFM | 20700 |

Source: the supplement of paper PMC12636428
